According to article PMC10194908 (PLOS ONE, 2023):

Columns and labels:
[1] = biological target: T1, Recombinant NS1 from DENV-4-Dominica/814669/1981 (dengue virus serotype 4 …, UniProt P09866); assay: BLI; details: both partners purified
T1 construct: also called DENV-4 NS1

[2] = biological target: T2, Recombinant NS1 from DENV-3-Sri Lanka D3/H/IMTSSA-SRI/2000/1266 (dengue virus serotype 3 (Sri Lanka …, UniProt Q6YMS4)); assay: immunoblot; details: both partners purified
T2 construct: also called DENV-3 NS1
T2 sequence (Q6YMS4 774-1125): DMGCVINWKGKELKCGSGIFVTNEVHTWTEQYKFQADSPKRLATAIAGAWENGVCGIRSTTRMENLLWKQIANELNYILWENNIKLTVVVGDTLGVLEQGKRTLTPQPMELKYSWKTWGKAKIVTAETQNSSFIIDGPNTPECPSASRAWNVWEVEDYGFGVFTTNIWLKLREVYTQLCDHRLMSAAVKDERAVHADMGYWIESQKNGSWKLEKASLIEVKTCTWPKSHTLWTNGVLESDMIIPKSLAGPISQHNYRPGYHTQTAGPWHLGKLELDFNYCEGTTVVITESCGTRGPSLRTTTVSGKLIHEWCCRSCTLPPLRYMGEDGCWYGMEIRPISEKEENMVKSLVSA

[3] = biological target: T1, Recombinant NS1 from …; assay: immunoblot; details: both partners purified
Target sequence in this assay (P09866 775-1126): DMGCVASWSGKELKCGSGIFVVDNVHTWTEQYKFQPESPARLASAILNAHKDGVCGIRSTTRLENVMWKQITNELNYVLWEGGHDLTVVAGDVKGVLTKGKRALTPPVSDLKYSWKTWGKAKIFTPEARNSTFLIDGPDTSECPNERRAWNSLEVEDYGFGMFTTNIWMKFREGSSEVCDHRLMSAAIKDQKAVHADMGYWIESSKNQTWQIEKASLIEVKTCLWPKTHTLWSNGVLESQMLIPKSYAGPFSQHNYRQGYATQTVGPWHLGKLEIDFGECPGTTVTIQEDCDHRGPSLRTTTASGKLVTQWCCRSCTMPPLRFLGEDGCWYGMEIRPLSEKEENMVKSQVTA

[4] = biological target: NS1 secreted from Vero cells infected with DENV-3-VN32/96 (Dengue virus 3, strain VN32/96 (paper: …, strain)); assay: ELISA; details: one partner purified
[5] = biological target: NS1 secreted from Vero cells infected with DENV-2-TSV01 (Dengue virus type 2, strain TSV01 …, UniProt Q91H74, strain); assay: ELISA; details: one partner purified
[6] = biological target: NS1 secreted from Vero cells infected with DENV-4-TVP360 (Dengue virus type 4, strain TVP360 …, UniProt D2KQW6, strain); assay: ELISA; details: one partner purified
[7] = biological target: NS1 secreted from Vero cells infected with DENV-4-2641Y08 (Dengue virus type 4, strain 2641Y08 …, UniProt F8TEL4, strain); assay: ELISA; details: one partner purified
[8] = biological target: NS1 secreted from Vero cells infected with DENV-2-D2Y98P (Dengue virus type 2, strain D2Y98P …, UniProt F8TRW4, strain); assay: ELISA; details: one partner purified
[9] = biological target: NS1 secreted from Vero cells infected with DENV-3-CHD94-089 (Dengue virus 3, strain CHD94-089 …, strain); assay: ELISA; details: one partner purified
[10] = biological target: T2, Recombinant NS1 from DENV-3-Sri Lanka …; assay: ELISA; details: both partners purified

Measured: binding result

B1: A2 (antibody, V domains shown)
VH: QVQLQESGGGVVQPGRSLRLFCAASGFTFSAFSTYAIHWVRQAPGKGLEWVAVISYDANNKYYADSVKGRFTISRDNFKSTLFLQMNSLRAEDTAVYYCARDRSDSGYDSYYYYYGMDVWGQGTTVTVSS
VL: QSVVTQPPSVSAAPGQKVTISCSGSSSNIGRNYVSWYQHLPGTAPKLLIYDNNKRRSGIPDRFSGSKSDTTATLGITGLQTVDEADYYCGSWDNSLSAYVFGTGTKVTV
notes: also called A2-HRP
binds: [1] | [2]

B2: D6 (antibody, V domains shown)
VH: EVQLVQSGGGLVQPGRSLRLSCAASGFTFQDYAMHWVRQAPGKGLEWVSGIGRDSGTIDYADSVKGRFTISRDNAKNSLYLQMNSLRAEDTALYYCAKISNGYRPDNWGQGTLVTVSS
VL: VLTQPPSVSVSPGQTARITCSGDVLAKRYARWFQQKPGQAPVVVIYKDSERPSGIPERLSGSSSGTTVTLTISGAQVEDEADYYCYCAADNNVVFGGGTKLTVL
notes: also called D6-HRP; HRP-D6
binds: [3]

B3: D8 (antibody, V domains shown)
VH: QVQLQESGPGLVKPSETLPLTCTVSGGSISNNGFYWGWIRQPPGKGLEWIGNIYYRGSTYYNPSLNSRVTISVDTSKNQFSLQLNSVTAADTAVYYCARLGIQLWFAIDYWGQGTLVTVSS
VL: SVLTQPPAVSVALGQTVRITCQGDSLRSSYASWYQQKPGQAPVLIFYAKNNRPSGIPDRFSGSSSGNTASLTITGAQAEDEADYYCYSRDSSGNLWVFGGGTKLTVL
notes: also called D8-HRP; HRP-D8
binds: [4] | [5] | [6] | [7] | [8] | [9] | [10]
